Data published in PMC12003248, “ERCC6L2 mitigates replication stress and promotes centromere stability” (Cell Reports, 2023).
Where no end group is shown, it is not given here.

What was measured:
[1] = target: T1, His-tagged human PCNA (human, UniProt P12004 1-261); assay: pull-down; GST-tagged ERCC6L2 753-819 immobilised on GST-beads, incubated with purified His-tagged PCNA 1 h at 4°C in 50 mM Tris-HCl pH 8, 150 mM NaCl, 1 mM DTT, 0.2% Triton X-; Western blot against PCNA; conditions: both partners purified
T1 construct: PCNA, human; cloned into the NdeI and XhoI sites of pET28a for the protein with N-terminal His-tag; The ITC methods say only 'PCNA'; the paragraph on purification of His-tagged PCNA describes the preparation for ITC; also called recombinant PCNA; source: E. coli Rosetta (pET28a), purified (Ni-NTA, Q-sepharose, Superdex S-200); not shown: His-tag, N-terminal, kept
T1 sequence (P12004 whole entry): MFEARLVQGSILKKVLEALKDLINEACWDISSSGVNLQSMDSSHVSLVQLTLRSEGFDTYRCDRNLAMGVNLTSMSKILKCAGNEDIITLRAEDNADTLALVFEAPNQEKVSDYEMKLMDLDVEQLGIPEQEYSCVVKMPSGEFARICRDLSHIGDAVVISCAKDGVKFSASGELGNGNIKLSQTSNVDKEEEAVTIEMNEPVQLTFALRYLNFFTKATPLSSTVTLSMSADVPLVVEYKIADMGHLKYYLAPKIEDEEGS

[2] = target: T1, His-tagged human PCNA; assay: pull-down; biotinylated peptides immobilised on magnetic streptavidin beads, incubated with purified His-tagged PCNA 1 h at 4°C in 50 mM Tris-HCl pH 8, 150 mM NaCl, 1 mM DTT, 0.2% Triton X-; anti-PCNA Western blot; conditions: both partners purified
[3] = target: T1, His-tagged human PCNA; assay: ITC; 25°C, PBS with 1 mM β-mercaptoethanol; 15 μM PCNA in the chamber, 215 μM ERCC6L2 aPIP peptide injected in 20 steps of 2 μL; single set of independent binding sites model; conditions: both partners purified
[4] = test system: CENP-A; assay: Colocalization of YFP-ERCC6L2 constructs with CENP-A; assay type: cell-based, human; conditions: U2OS cells; N(cells) > 1,400 for mutants
[5] = test system: endogenous PCNA; assay: Colocalization of YFP-ERCC6L2 constructs with endogenous PCNA; assay type: cell-based, human; conditions: YFP-tagged, U2OS cells
Source text: Figure 4 ERCC6L2 contains an atypical PCNA-binding motif (A) ERCC6L2 colocalizes with PCNA at CENP-C-negative foci. U2OS cells transfected with YFP-ERCC6L2 were stained for CENP-C and PCNA after pre-extraction of soluble proteins. ERCC6L2-and PCNA-positive, but CENP-C negative foci (red arrows) are marked in zoomed images. (B) ERCC6L2 colocalizes with RPA at CENP-C-negative foci. U2OS cells transfected with YFP-ERCC6L2 were stained for CENP-C and RPA. ERCC6L2- and RPA-positive, but CENP-C-negative foci (red arrows) are marked in zoomed images. (C) Colocalization of the C-terminal ERCC6L2^701−1561 fragment with endogenous PCNA. (D) PCNA pull-down with biotinylated peptides. Biotinylated PIP-box and APIM motif peptides were bound to streptavidin beads and incubated with recombinant PCNA. Interactions were assayed by western blotting with PCNA antibody. Wild-type ZRANB3 PIP-box peptide (ZRANB3 PIP) was used as a positive control. Mutant ZRANB3 PIP-box peptide (Q519A, F525A, and F526A, ZRANB3 PIP^∗) served as a negative control. […] Interactions were assessed by western blotting against PCNA (shown on the right). […]
U2OS cells (ATCC) were grown in 24 well plates. […] Samples were analyzed by confocal microscopy using Olympus FV1200 or Zeiss 880 Airyscan microscopes, or using EVOS M7000 Imaging System. […]

[6] = test system: U2OS cells; assay: Nuclear patterns resembling replication foci of YFP-ERCC6L2 truncations; assay type: cell-based, human; conditions: YFP-tagged fragments
Source text: Figure 4 ERCC6L2 contains an atypical PCNA-binding motif (A) ERCC6L2 colocalizes with PCNA at CENP-C-negative foci. U2OS cells transfected with YFP-ERCC6L2 were stained for CENP-C and PCNA after pre-extraction of soluble proteins. ERCC6L2-and PCNA-positive, but CENP-C negative foci (red arrows) are marked in zoomed images. (B) ERCC6L2 colocalizes with RPA at CENP-C-negative foci. U2OS cells transfected with YFP-ERCC6L2 were stained for CENP-C and RPA. ERCC6L2- and RPA-positive, but CENP-C-negative foci (red arrows) are marked in zoomed images. (C) Colocalization of the C-terminal ERCC6L2^701−1561 fragment with endogenous PCNA. (D) PCNA pull-down with biotinylated peptides. Biotinylated PIP-box and APIM motif peptides were bound to streptavidin beads and incubated with recombinant PCNA. Interactions were assayed by western blotting with PCNA antibody. Wild-type ZRANB3 PIP-box peptide (ZRANB3 PIP) was used as a positive control. Mutant ZRANB3 PIP-box peptide (Q519A, F525A, and F526A, ZRANB3 PIP^∗) served as a negative control. ERCC6L2 aPIP and ERCC6L2 aPIP^∗ denote atypical ERCC6L2 peptides (residues 790–811) containing the WT and the Q798A mutant sequences, respectively. (E) Expression patterns of the indicated C-terminal YFP-ERCC6L2 constructs. […] (F) PCNA pull-down with GST-tagged peptides. Wild-type and Q798A mutant versions of the GST-tagged ERCC6L2 fragments (residues 753–819) were immobilized on GST beads (shown on the left) and incubated with recombinant PCNA. Interactions were assessed by western blotting against PCNA (shown on the right). (G) Schematic representation of different ERCC6L2 fragments tested for formation of PCNA-like foci. A region at the N terminus of fragment 701–1,098 is zoomed below to show sequence alignment of different ERCC6L2 proteins. The conserved atypical PIP-box is marked in a green frame. Targeted mutation sites are indicated by red arrows. (H) Colocalization of YFP-ERCC6L2 wild type, ATPase dead K165 ERCC6L2, and aPIP^∗ mutant (Q798A, C804A, F806A) with CENP-A. N(cells) > 1,400. (I) Colocalization of YFP-ERCC6L2 wild type, ATPase dead K165 ERCC6L2, and aPIP^∗ mutant (Q798A, C804A, F806A) with CENP-B. N(cells) > 1,000. (J) Front and side views of the PCNA ring (white surface and ribbons) with the ERCC6L2 aPIP-box peptide (green sticks). (K) Overview of the hydrogen-bond interaction network between the ERCC6L2 aPIP-box peptide (green) and PCNA (white). Hydrogen bonds are shown as yellow dotted lines. (L) Hydrophobic pocket on PCNA surface (white) with conserved residues that form “hydrophobic plug” (Leu801, Cys804, and Phe806; shown as green sticks) in the ERCC6L2 aPIP-box peptide. (M) Magnified view of the boxed region in (I). (N) Magnified view of the hydrogen-bond interaction network between the ERCC6L2 aPIP-box peptide (green) and PCNA (white, labels in italics). Hydrogen bonds are shown as yellow dotted lines. Intramolecular hydrogen bonds between ERCC6L2 aPIP-box residues are also shown. (H) and (I) Box and whisker plots. […] (A), (B), (C), (E) Scale bar, 5 μm.
U2OS cells (ATCC) were grown in 24 well plates. Where indicated, cells were transfected with the YFP constructs […] with siRNAs. […] Samples were analyzed by confocal microscopy using Olympus FV1200 or Zeiss 880 Airyscan microscopes, or using EVOS M7000 Imaging System.

B1: GST-tagged ERCC6L2^753−819 fragment (domain or fragment, human, UniProt Q5T890 753-819, looked up)
chain: AAEPLAKEACDLCSDFSDEEPVGATGIKTAKNKAPDSSKASSSPGQLTLLQCGFSKLLETKCKAVED
binding result [1]: binds

B2: Biotinylated aPIP ERCC6L2 peptide (residues 790–811) (peptide, UniProt Q5T890 790-811, looked up)
peptide: SKASSSPGQLTLLQCGFSKLLE
modifications: also: biotin, position not given here
notes: ERCC6L2, human, residues 790-811, wild-type atypical PIP-box (consensus Q-[FL]-x-L-x-Q-C-G-[FL]); also called ERCC6L2 aPIP; biotinylated ERCC6L2^790−811 peptide; source: synthetic peptide (Genscript)
binding result [2]: binds

B3: ERCC6L2^795−816 aPIP peptide (peptide, UniProt Q5T890 795-816, looked up)
peptide: SPGQLTLLQCGFSKLLETKCKA
notes: ERCC6L2, human, residues 795-816, atypical PIP-box; Used for ITC and for co-crystallisation with PCNA; also called ERCC6L2 aPIP peptide; aPIP(ERCC6L2); source: synthetic peptide (Genscript)
Kd [3]: ~6 µM

B4: YFP-ERCC6L2^1053−1247: YFP-tagged C-terminal ERCC6L2 fragment (protein, UniProt Q5T890 1053-1247, looked up, fragment)
chain: FSFSKQSHRPRTIRDRTSFSSKLPSHNKKNSTFIPRKPMKCSNEKVVNQEQSYESMDKFLDGVQEVAYIHSNQNVIGSSKAENHMSRWAAHDVFELKQFSQLPANIAVCSSKTYKEKVDADTLPHTKKGQQPSEGSISLPLYISNPVNQKKKKVYHTNQTTFIIGETPKGIRRKQFEEMASYFNSSSVNEFAKHI
modifications: YFP tag
notes: YFP-tagged C-terminal ERCC6L2 fragment
colocalization with CENP-A [4]: formed foci marked by the CENP-A protein

B5: ERCC6L2^701−1247: C-terminal ERCC6L2 fragment (protein, UniProt Q5T890 701-1247, looked up, fragment)
chain: REGQVEAGIMTATTWLKEGPPAHKLEMPRQPDCQECRGTEQAAEPLAKEACDLCSDFSDEEPVGATGIKTAKNKAPDSSKASSSPGQLTLLQCGFSKLLETKCKAVEDSDGNTASDDESSDEQPTCLSTEAKDAGCEKNQDSLGTSKHQKLDNILNPKEKHIFYKSEKILEQNISSKSDEKKIKNTDKHCILQNVTESEDSDVICPTQYTTERFPDNSIRFKPPLEGSEDSETEHTVKTRNNDNSRNTDDKRNGIISKKLSPENTTLKSILKRKGTSDISDESDDIEISSKSRVRKRASSLRFKRIKETKKELHNSPKTMNKTNQVYAANEDHNSQFIDDYSSSDESLSVSHFSFSKQSHRPRTIRDRTSFSSKLPSHNKKNSTFIPRKPMKCSNEKVVNQEQSYESMDKFLDGVQEVAYIHSNQNVIGSSKAENHMSRWAAHDVFELKQFSQLPANIAVCSSKTYKEKVDADTLPHTKKGQQPSEGSISLPLYISNPVNQKKKKVYHTNQTTFIIGETPKGIRRKQFEEMASYFNSSSVNEFAKHI
modifications: YFP tag
notes: C-terminal ERCC6L2 fragment
colocalization with endogenous PCNA [5]: efficiently colocalized with endogenous PCNA

B6: 701–1,098: C-terminal YFP-ERCC6L2 fragment (protein, UniProt Q5T890 701-1098, looked up, fragment)
chain: REGQVEAGIMTATTWLKEGPPAHKLEMPRQPDCQECRGTEQAAEPLAKEACDLCSDFSDEEPVGATGIKTAKNKAPDSSKASSSPGQLTLLQCGFSKLLETKCKAVEDSDGNTASDDESSDEQPTCLSTEAKDAGCEKNQDSLGTSKHQKLDNILNPKEKHIFYKSEKILEQNISSKSDEKKIKNTDKHCILQNVTESEDSDVICPTQYTTERFPDNSIRFKPPLEGSEDSETEHTVKTRNNDNSRNTDDKRNGIISKKLSPENTTLKSILKRKGTSDISDESDDIEISSKSRVRKRASSLRFKRIKETKKELHNSPKTMNKTNQVYAANEDHNSQFIDDYSSSDESLSVSHFSFSKQSHRPRTIRDRTSFSSKLPSHNKKNSTFIPRKPMKCSNEKV
modifications: YFP tag
notes: C-terminal YFP-ERCC6L2 fragment
nuclear pattern resembling replication foci [6]: show patterns reminiscent of replication foci

B7: 728–1,098: C-terminal YFP-ERCC6L2 fragment (protein, UniProt Q5T890 728-1098, looked up, fragment)
chain: PRQPDCQECRGTEQAAEPLAKEACDLCSDFSDEEPVGATGIKTAKNKAPDSSKASSSPGQLTLLQCGFSKLLETKCKAVEDSDGNTASDDESSDEQPTCLSTEAKDAGCEKNQDSLGTSKHQKLDNILNPKEKHIFYKSEKILEQNISSKSDEKKIKNTDKHCILQNVTESEDSDVICPTQYTTERFPDNSIRFKPPLEGSEDSETEHTVKTRNNDNSRNTDDKRNGIISKKLSPENTTLKSILKRKGTSDISDESDDIEISSKSRVRKRASSLRFKRIKETKKELHNSPKTMNKTNQVYAANEDHNSQFIDDYSSSDESLSVSHFSFSKQSHRPRTIRDRTSFSSKLPSHNKKNSTFIPRKPMKCSNEKV
modifications: YFP tag
notes: as for B6
nuclear pattern resembling replication foci [6]: show patterns reminiscent of replication foci

B8: 797–1,098: C-terminal YFP-ERCC6L2 fragment (protein, UniProt Q5T890 797-1098, looked up, fragment)
chain: KLLETKCKAVEDSDGNTASDDESSDEQPTCLSTEAKDAGCEKNQDSLGTSKHQKLDNILNPKEKHIFYKSEKILEQNISSKSDEKKIKNTDKHCILQNVTESEDSDVICPTQYTTERFPDNSIRFKPPLEGSEDSETEHTVKTRNNDNSRNTDDKRNGIISKKLSPENTTLKSILKRKGTSDISDESDDIEISSKSRVRKRASSLRFKRIKETKKELHNSPKTMNKTNQVYAANEDHNSQFIDDYSSSDESLSVSHFSFSKQSHRPRTIRDRTSFSSKLPSHNKKNSTFIPRKPMKCSNEKV
modifications: YFP tag
notes: as for B6
nuclear pattern resembling replication foci [6]: show patterns reminiscent of replication foci

B9: 820–1,098: C-terminal YFP-ERCC6L2 fragment (protein, UniProt Q5T890 820-1098, looked up, fragment)
chain: SDEQPTCLSTEAKDAGCEKNQDSLGTSKHQKLDNILNPKEKHIFYKSEKILEQNISSKSDEKKIKNTDKHCILQNVTESEDSDVICPTQYTTERFPDNSIRFKPPLEGSEDSETEHTVKTRNNDNSRNTDDKRNGIISKKLSPENTTLKSILKRKGTSDISDESDDIEISSKSRVRKRASSLRFKRIKETKKELHNSPKTMNKTNQVYAANEDHNSQFIDDYSSSDESLSVSHFSFSKQSHRPRTIRDRTSFSSKLPSHNKKNSTFIPRKPMKCSNEKV
modifications: YFP tag
notes: as for B6
nuclear pattern resembling replication foci [6]: do not

B10: 880–1,098: C-terminal YFP-ERCC6L2 fragment (protein, UniProt Q5T890 880-1098, looked up, fragment)
chain: EKKIKNTDKHCILQNVTESEDSDVICPTQYTTERFPDNSIRFKPPLEGSEDSETEHTVKTRNNDNSRNTDDKRNGIISKKLSPENTTLKSILKRKGTSDISDESDDIEISSKSRVRKRASSLRFKRIKETKKELHNSPKTMNKTNQVYAANEDHNSQFIDDYSSSDESLSVSHFSFSKQSHRPRTIRDRTSFSSKLPSHNKKNSTFIPRKPMKCSNEKV
modifications: YFP tag
notes: as for B6
nuclear pattern resembling replication foci [6]: do not
